The experiment deals with T1, recombinant human angiotensin-converting enzyme 2 (human, UniProt Q9BYF1 18-740).
T1 construct: also called rhACE2; hACE2
The experiment can be described thus: phage display biopanning. As to conditions: both partners purified.

Consider one molecule from article PMC10750099, “Mapping immunological and host receptor binding determinants of SARS-CoV spike protein utilizing the Qubevirus platform” (The Journal of Biological Chemistry, 2023).

T1 sequence (Q9BYF1 18-740): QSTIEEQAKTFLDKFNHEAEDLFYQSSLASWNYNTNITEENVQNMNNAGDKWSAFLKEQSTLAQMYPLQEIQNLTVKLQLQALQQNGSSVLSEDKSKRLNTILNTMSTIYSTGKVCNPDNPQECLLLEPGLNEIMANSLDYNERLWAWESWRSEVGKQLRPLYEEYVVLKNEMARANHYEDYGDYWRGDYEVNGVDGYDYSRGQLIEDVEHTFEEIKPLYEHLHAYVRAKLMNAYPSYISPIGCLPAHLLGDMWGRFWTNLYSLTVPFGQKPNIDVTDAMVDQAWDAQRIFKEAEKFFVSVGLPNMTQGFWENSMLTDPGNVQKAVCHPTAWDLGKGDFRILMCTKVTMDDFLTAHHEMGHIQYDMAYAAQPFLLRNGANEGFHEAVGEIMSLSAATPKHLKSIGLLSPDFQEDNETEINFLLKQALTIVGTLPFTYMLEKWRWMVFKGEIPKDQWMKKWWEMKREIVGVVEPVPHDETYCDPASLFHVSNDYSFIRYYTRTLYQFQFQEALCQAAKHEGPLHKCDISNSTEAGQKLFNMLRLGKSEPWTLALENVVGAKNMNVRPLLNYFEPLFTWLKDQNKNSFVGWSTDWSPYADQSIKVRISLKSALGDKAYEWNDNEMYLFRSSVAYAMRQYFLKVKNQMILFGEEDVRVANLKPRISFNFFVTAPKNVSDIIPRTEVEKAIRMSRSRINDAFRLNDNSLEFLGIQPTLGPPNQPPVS

B1: recombinant Qβ phage QβF6 displaying SARS-CoV spike fragment F6 (S425-525) at the C terminus of the A1 minor coat protein (domain or fragment)
chain: not shown
notes: also called GF6; QF6
In the case of B1, the binding result is given as “binds”.
